{"source": "patent US8692070B2", "about": "“Plants with improved nitrogen utilization and stress tolerance” (Iowa Corn Promotion Board, priority 2009, dated 2014)", "molecules": {"B1": {"name": "NAGK: arginine-insensitive N-acetyl glutamate kinase (SEQ ID NO:2) from Brevibacillus laterosporus, 6-histidine tagged, E. coli protein extract (protein)", "chain": "MLHEVMVIKCGGSMLEQLPESFYNKLATLQAEGRSIVIVHGGGPAINQMLEQLKIEPTFSNGLRVTDEPTMQAVEMVLSGPINKLVVRKLLHAGGKAWGLSGVDGSLLQAVEKTQGLGLVGSITVVDQAPLQLLLSNGYIPVVSPIAVSEDGRTRYNCNADTVAGAIASALGAKQLLMLTDVPGIWAENELGEKQLLPTVTTEDIQLMMKNQIITGGMIPKVQAALDALAQGVQEVVICKGEAETLDGVVKGMAVGTSISAEMSRGQDSQAFISNKV", "modifications": "Zea mays"}}, "type_in_all_cases": "biochemical, Brevibacillus laterosporus", "key": {"[1]": {"system": "NAGK enzyme", "test": "NAGK enzyme assay, titration with arginine", "conditions": "NAGK 100 ng/mL; for A540 nm: 70 mM NAG, 30 minutes 37° C., no-arginine control 0.284", "procedure": "(§1) The NAGK enzyme assay was adapted from the method of Denes (1970). Product formation was quantified using a Spectramax 190 spectrophotometer at 540 nm.\nThe following master mix for NAGK in vitro enzyme assays was prepared for the purpose of determining the effect of arginine on NAGK enzyme activity: 50 mM Tris; final pH was 5.5;100 mM hydroxylamine (NH2OH); 10 mM MgCl2; 7 mM ATP; 70 mM NAG.\nThis master mix was subdivided into individual wells in a 96-well plate (200 uL/well final volume), and then varying concentrations of arginine (0.15 mM to 10 mM) were then added to individual wells. The enzyme reactions were then initiated by addition of NAGK enzyme (100 ng/mL). Following 30 minutes of incubation at 37° C., the absorbance of each sample was quantified. A control reaction without arginine was prepared an analyzed alongside."}, "[2]": {"system": "NAGK enzyme", "test": "NAGK enzyme assay, titration with NAGK enzyme", "conditions": "70 mM NAG, 1 hour 37° C.; for A540 nm: buffer control (0.040) subtracted", "procedure": "NAGK overexpression vector pAX4389 was transformed into electrocompetent E. coli cells (BL21 *DE3, Invitrogen) and single colonies were obtained by selection on the antibiotic kanamycin. An individual colony was then grown in liquid medium (LB broth) until the culture absorbance (at 600 nm) reached 0.6, and then 0.5 mM IPTG was added to induce expression from the T7 promoter. Induction was carried out overnight at 16° C. The following day, the induced culture was centrifuged and the pellet was frozen for two hours at −20° C. After thawing on ice, the pellet was resuspended in […] of lysis buffer (50 mM Hepes, pH 7.0, 50 mM NaCl), treated with Lysozyme (Novagen) at room temperature for 30 minutes, and then sonicated to lyse the cells. Insoluble material was separated from the soluble protein extract through centrifugation. This protein extract was then stored in an ice bucket, and NAGK enzyme assays were prepared a short time later. As a negative control, a control vector was prepared alongside that directed the overexpression of a bacterial EPSPS enzyme in the same base vector (pRSF-1b). This vector was likewise transformed into the same E. coli cell line and a transformant colony was selected for protein overexpression and a protein extract was prepared alongside NAGK.\nas §1\nA master mix for the NAGK in vitro reaction was prepared with the following components: 50 mM Tris, pH 8.0; final pH of the master mix was 5.5; 100 mM hydroxylamine (NH2OH); 10 mM MgCl2; 7 mM ATP; 70 mM N-acetylglutamate (NAG).\nThis master mix was subdivided into individual wells in a 96-well plate (200 uL/well final volume), and reactions were then initiated by adding various concentrations of NAGK protein extract into individual sample wells. Following 1 hour of incubation at 37° C., the absorbance of each sample was quantified. The quantity of NAGK protein in the extract was estimated by loading dilutions of the extract on a SDS-polyacrylamide gel alongside known concentrations of a bovine serum albumin standard, and then staining the gel with Coomassie protein stain (Simply Blue, Invitrogen).\nBy this method, it was observed that addition of NAGK protein extract at concentrations as low as 1 ng/mL generated an absorbance product at 540 nm. The absorbance results from the enzyme product (N-actylglutamyl-5-phosphate) reacting with hydroxylamine to create the absorbent compound N-acetyglutamyl-5-hydroxamate. The graph (FIG. 1) and table (Table 3) show the absorbance at each of 6 different concentrations of NAGK protein. The baseline absorbance generated by a buffer control (A540=0.04) was subtracted from each NAGK absorbance value."}, "[3]": {"system": "NAGK enzyme", "test": "NAGK enzyme assay, titration with substrate (NAG)", "conditions": "1000 ng/mL NAGK, 1 hour 37° C., no-substrate control (0.041) subtracted", "procedure": "as §1\nThe following master mix for NAGK in vitro enzyme assays was prepared for the purpose of titrating the substrate (NAG) into the reaction: 50 mM Tris; final pH was 5.5; 100 mM hydroxylamine (NH2OH); 10 mM MgCl2; 7 mM ATP; 1000 ng/mL NAGK enzyme (from protein extract).\nThis master mix was subdivided into individual wells in a 96-well plate (200 uL/well final volume), and reactions were then initiated by adding various concentrations of the substrate NAG into individual sample wells. The NAG concentrations ranged from 1.6 mM up to 100 mM. Following 1 hour of incubation at 37° C., the absorbance of each sample was quantified. A control reaction without substrate was prepared an analyzed alongside."}}}
{"molecule": "N=C(N)NCCC[C@H](N)C(=O)O", "note": "[Arginine, arginine]", "values": [{"measurement": "A540 nm", "setting": "[1]; Arginine 0.16 mM", "result": 0.291}, {"measurement": "A540 nm", "setting": "[1]; Arginine 0.31 mM", "result": 0.259}, {"measurement": "A540 nm", "setting": "[1]; Arginine 0.63 mM", "result": 0.263}, {"measurement": "A540 nm", "setting": "[1]; Arginine 1.25 mM", "result": 0.237}, {"measurement": "A540 nm", "setting": "[1]; Arginine 2.5 mM", "result": 0.257}, {"measurement": "A540 nm", "setting": "[1]; Arginine 5 mM", "result": 0.266}, {"measurement": "A540 nm", "setting": "[1]; Arginine 10 mM", "result": 0.287}, {"measurement": "effect of arginine on product formation by the NAGK enzyme", "setting": "[1]; arginine 0.15 mM to 10 mM", "result": "insensitive"}]}
{"molecule": "B1", "values": [{"measurement": "lowest concentration of NAGK protein extract that generated an absorbance product at 540 nm", "setting": "[2]", "result": 1, "unit": "ng/mL"}, {"measurement": "A540 nm", "setting": "[2]; NAGK 1 ng/mL", "result": 0.001}, {"measurement": "A540 nm", "setting": "[2]; NAGK 3.9 ng/mL", "result": 0.002}, {"measurement": "A540 nm", "setting": "[2]; NAGK 15.6 ng/mL", "result": 0.039}, {"measurement": "A540 nm", "setting": "[2]; NAGK 62.5 ng/mL", "result": 0.0159}, {"measurement": "A540 nm", "setting": "[2]; NAGK 250 ng/mL", "result": 0.518}, {"measurement": "A540 nm", "setting": "[2]; NAGK 1000 ng/mL", "result": 0.872}, {"measurement": "A540 nm", "setting": "[3]; NAG 1.6 mM", "result": 0.07}, {"measurement": "A540 nm", "setting": "[3]; NAG 3.1 mM", "result": 0.13}, {"measurement": "A540 nm", "setting": "[3]; NAG 6.3 mM", "result": 0.0212}, {"measurement": "A540 nm", "setting": "[3]; NAG 12.5 mM", "result": 0.313}, {"measurement": "A540 nm", "setting": "[3]; NAG 25 mM", "result": 0.411}, {"measurement": "A540 nm", "setting": "[3]; NAG 50 mM", "result": 0.515}, {"measurement": "A540 nm", "setting": "[3]; NAG 100 mM", "result": 0.57}]}
